The record followed here is the supplement of paper PMC6379048.

What all share (experiment): EC50 of free RNA motif oligo competing protein binding to immobilised probe
In one data set the target is T1, CSTF3 (UniProt Q12996).
T1 sequence: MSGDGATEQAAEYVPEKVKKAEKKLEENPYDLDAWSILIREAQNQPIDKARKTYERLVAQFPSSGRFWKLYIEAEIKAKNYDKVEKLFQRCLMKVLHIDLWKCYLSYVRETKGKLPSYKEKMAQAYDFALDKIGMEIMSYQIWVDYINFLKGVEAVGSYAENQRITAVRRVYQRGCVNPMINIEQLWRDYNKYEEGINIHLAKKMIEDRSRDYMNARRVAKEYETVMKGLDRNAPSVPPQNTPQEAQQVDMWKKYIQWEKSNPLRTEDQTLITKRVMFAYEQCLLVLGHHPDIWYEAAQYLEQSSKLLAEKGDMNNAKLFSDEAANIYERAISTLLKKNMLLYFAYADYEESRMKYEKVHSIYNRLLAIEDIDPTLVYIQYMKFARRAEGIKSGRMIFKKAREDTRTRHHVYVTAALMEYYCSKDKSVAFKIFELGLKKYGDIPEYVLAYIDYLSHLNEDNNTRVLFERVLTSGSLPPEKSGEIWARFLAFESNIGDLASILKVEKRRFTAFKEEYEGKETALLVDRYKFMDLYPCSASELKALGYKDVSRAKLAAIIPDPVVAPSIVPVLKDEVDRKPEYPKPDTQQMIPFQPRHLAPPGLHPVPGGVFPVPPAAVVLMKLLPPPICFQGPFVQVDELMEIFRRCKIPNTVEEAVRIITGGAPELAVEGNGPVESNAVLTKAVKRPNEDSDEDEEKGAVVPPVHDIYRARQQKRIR
The procedure, abridged:
(§1)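 To obtain EC50, data were fitted with a four-parameter log-logistic model; Kd was then EC50 multiplied by a protein-dependent depletion factor. Beforehand, free RNA oligos (0 nM to 30 μM) were pre-incubated with HEK293-FT lysate (2.5 mg protein/well) for 1 h at 4°C. The lysate then spent 30 min at 4°C with the same 5′-amino-C6 oligos coupled to NHS-Sepharose beads, and bound proteins were quantified by label-free LC-MS/MS, normalised to the control.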

The next data set deals with T2, LSM6 (UniProt P62312).
T2 sequence: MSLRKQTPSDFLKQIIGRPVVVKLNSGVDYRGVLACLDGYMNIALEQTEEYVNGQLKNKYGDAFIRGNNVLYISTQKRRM
The procedure, abridged:
as §1

The target of a further data set is T3, RBMS2 (UniProt Q15434).
T3 sequence: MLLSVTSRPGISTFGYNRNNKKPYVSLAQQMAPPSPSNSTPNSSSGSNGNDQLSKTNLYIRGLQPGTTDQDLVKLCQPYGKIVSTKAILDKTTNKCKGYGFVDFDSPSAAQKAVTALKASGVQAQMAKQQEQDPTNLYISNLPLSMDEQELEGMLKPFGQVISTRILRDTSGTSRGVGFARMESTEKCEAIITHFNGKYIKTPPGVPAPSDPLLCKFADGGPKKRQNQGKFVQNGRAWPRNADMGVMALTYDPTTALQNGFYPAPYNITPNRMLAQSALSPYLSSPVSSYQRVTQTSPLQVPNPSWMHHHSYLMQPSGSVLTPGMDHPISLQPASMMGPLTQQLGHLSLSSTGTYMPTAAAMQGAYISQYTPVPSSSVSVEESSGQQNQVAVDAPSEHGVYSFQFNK
The method, boiled down: as §1

The target in a further data set is RPS16 (UniProt P62249). The method, boiled down:
as §1

Another data set deals with T4, WDR33 (UniProt Q9C0J8).
T4 sequence: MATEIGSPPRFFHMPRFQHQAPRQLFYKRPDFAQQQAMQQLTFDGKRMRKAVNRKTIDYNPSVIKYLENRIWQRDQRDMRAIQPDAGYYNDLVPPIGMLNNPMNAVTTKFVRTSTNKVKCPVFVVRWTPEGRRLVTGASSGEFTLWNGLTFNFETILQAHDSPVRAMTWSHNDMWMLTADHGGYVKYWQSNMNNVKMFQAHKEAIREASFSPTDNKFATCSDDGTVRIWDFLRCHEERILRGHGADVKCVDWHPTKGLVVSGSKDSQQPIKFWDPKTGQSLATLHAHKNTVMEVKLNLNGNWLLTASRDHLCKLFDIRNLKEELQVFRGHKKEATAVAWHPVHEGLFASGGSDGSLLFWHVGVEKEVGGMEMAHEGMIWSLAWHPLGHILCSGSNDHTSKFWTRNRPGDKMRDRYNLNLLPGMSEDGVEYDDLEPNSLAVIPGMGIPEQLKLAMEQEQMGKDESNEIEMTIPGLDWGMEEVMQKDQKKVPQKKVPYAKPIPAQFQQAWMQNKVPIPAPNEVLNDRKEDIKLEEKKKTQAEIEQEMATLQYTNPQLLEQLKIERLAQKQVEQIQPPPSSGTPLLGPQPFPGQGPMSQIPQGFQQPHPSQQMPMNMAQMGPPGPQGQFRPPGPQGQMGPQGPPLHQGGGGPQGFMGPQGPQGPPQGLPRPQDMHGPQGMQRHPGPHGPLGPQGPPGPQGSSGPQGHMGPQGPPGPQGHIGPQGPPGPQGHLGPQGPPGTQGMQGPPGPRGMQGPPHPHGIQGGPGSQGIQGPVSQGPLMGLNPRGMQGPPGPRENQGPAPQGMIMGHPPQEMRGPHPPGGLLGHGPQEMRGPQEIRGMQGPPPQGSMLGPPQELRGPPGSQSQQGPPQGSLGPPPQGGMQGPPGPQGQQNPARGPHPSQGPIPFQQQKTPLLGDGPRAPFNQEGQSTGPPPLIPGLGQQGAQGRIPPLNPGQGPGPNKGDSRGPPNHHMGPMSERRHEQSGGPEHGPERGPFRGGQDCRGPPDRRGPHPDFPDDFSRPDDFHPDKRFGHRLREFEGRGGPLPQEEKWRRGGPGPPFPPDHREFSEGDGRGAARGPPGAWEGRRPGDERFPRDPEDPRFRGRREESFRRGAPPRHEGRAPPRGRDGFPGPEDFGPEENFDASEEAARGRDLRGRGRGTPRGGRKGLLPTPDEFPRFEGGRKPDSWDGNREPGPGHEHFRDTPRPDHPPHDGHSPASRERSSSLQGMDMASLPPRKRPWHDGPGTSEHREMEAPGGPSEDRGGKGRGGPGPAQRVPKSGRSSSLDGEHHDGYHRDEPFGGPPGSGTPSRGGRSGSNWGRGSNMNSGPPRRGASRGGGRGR
The procedure, abridged:
as §1

pEC50: −log10 of the molar value.

Regarding AAUAAA, the pEC50 (as a rule, the EC50 on a negative log10 scale, so that one unit is a factor of ten) is 7.09 with CSTF3; 6.10 with LSM6; 5.89 in the data set with RBMS2; 6.12 in the data set with RPS16; 7.19 in the data set with WDR33.
Sequence CUGUCCU showed a negative logarithm of the EC50 (pEC50) with RPS16 of 6.76.
With UAUUUAU, the pEC50 with CSTF3 was 6.22; in the data set with LSM6 it was 6.35; with RBMS2, 6.26; in the data set with WDR33, 6.02.
